Measurements: US20110123532A1 (ONCOMED PHARMACEUTICALS, published 2011)

Experiments:
[1] = molecular target: the molecule itself; experiment: non-reducing western blot of conditioned medium of transfected HEK293 cells, anti-FLAG (left, middle) and anti-Fc (right); homodimer of the minibody
From the text: Var1 contains amino acid 249 Lys to Glu substitution and amino acid 288 Lys to Glu substitution within the CH3 domain. Antibody Var2 contains substitutions of amino acid 249 Lys to Glu substitution, amino acid 286 Tyr to Phe, and amino acid 288 Lys to Glu within the CH3 domain. Antibody Var3 (also referred to as 13A) contains substitutions of amino acid 236 Glu to Lys and amino acid 278 Asp to Lys. HEK293 cells were transiently transfected with combinations of expression vectors as indicated. Non-reducing Western blot analysis was conducted with an anti-FLAG antibody to reveal the size of the secreted antibody products.
Amino acid substitutions were introduced into either a truncated heavy chain (termed mini-body) containing the linker and CH2-CH3 region of a heavy chain, or a full length antibody heavy chain heavy chain.

[2] = molecular target: T1, full length human DLL4 on transfected human 293 HEK cells (human, UniProt Q9NR61 27-685); experiment: flow cytometry on human 293 HEK cells transfected with full length human DLL4 and GFP; goat anti-human IgG H/L-PE; MFI against log(nM), non-linear fit
T1 construct: whole, on cells; also called hDLL4 transfected cells; human DLL4 transfected cells

[3] = molecular target: T1, full length human DLL4 on transfected …; experiment: flow cytometry on HEK 293 cells transfected with human DLL4; reference 21M18
Procedure: Briefly, Human 293 HEK cells were transfected using Fugene 6 transfection reagent as recommended by the manufacturer (Roche Inc.). Cells were transfected with cDNA expression vector encoding full length human DLL4, as well as a second vector encoding green fluorescent protein, pcDNA-GFP, to mark the transiently transfected cells. […] Cells were then rinsed twice with Staining Medium (HBSS with 2% FCS) and incubated with fluorescent secondary antibody, goat-anti-human IgG H/L-phycoerythrin (PE), at 1:200 dilution in PBS for 1 hour. Cells were then analyzed by flow cytometry using a FACS Caliber instrument (BD Bioscience). Specific SBGSP binding was assessed by determining the presence of cells positive for GFP signal and PE signal.

human VEGF [4] = molecular target: T2, human VEGF (human, UniProt P15692-4 27-191); experiment: SPR (Biacore), VEGF surface
T2 construct: Immobilised on a CM5 chip for Biacore; the same name is used for the rhVEGF of the HUVEC assay; also called hVEGF; rhVEGF

human VEGF [5] = molecular target: T2, human VEGF; experiment: SPR (Biacore), VEGF surface; reference 219R0202 IgG
human VEGF [6] = molecular target: T2, human VEGF; experiment: SPR (Biacore 2000), recombinant VEGF immobilised on CM5, IgG injected
Procedure: (§1) IgG affinities were determined using a Biacore 2000 instrument. Briefly, recombinant proteins were immobilized on a CM5 chip using standard amine based chemistry (NHS/EDC). For each Fab and IgG, different concentrations (100-1 nM) were injected over the surface and kinetic data were collected over time. The data was fit using the simultaneous global fit equation to yield affinity constants (KD) for each Fab and IgG.

mouse VEGF = molecular target: T3, mouse VEGF (mouse, UniProt Q00731-2 27-190, limits assumed); experiment: as above
T3 construct: also called mVEGF
T3 sequence (looked up): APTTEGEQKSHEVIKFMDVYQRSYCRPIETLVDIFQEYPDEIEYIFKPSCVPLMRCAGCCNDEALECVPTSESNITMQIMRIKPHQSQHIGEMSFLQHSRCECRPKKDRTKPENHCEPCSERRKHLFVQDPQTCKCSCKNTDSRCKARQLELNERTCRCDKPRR
Procedure: as §1

B1: FLAG tagged minibody with wild type human IgG2 CH2 and CH3 domains (WT) (other)
chain: DYKDDDDKCVECPPCPAPPVAGPSVFLFPPKPKDTLMISRTPEVTCVVVDVSHEDPEVQFNWYVDGVEVHNAKTKPREEQFNSTFRVVSVLTVVHQDWLNGKEYKCKVSNKGLPAPIEKTISKTKGQPREPQVYTLPPSREEMTKNQVSLTCLVKGFYPSDIAVEWESNGQPENNYKTTPPMLDSDGSFFLYSKLTVDKSRWQQGNVFSCSVMHEALHNHYTQKSLSLSPGK
notes: also called WT minibody
[1]
  binding result: binds

B2: 21M18 (antibody, V domains shown)
VH: QVQLVQSGAEVKKPGASVKISCKASGYSFTAYYIHWVKQAPGQGLEWIGYISSYNGATNYNQKFKGRVTFTTDTSTSTAYMELRSLRSDDTAVYYCARDYDYDVGMDYWGQGTLVTVSS
VL: DIVMTQSPDSLAVSLGERATISCRASESVDNYGISFMKWFQQKPGQPPKLLIYAASNQGSGVPDRFSGSGSGTDFTLTISSLQAEDVAVYYCQQSKEVPWTFGGGTKVEIKR
notes: also called 21M18 antibody; anti-human DLL4 (21M18)
[2]
  EC50: 2 nM

B3: 219R0202-21M18 single gene bispecific antibody (SGBSP) (bispecific antibody, human IgG2, kappa)
chain 1: DIQLTQSPSSLSASVGDRVTITCRASQGINNHLAWYQQKPGKVPKSLIYAASNLHSGVPSKFSGSGSGTHFTLIISSLQPEDIATYYCQQYDNLPLTFGGGTKVEIKRTVAAPSVFIFPPSDEQLKSGTASVVCLLNNFYPREAKVQWKVDNALQSGNSQESVTEQDSKDSTYSLSSTLTLSKADYEKHKVYACEVTHQGLSSPVTKSFNRGECGGGGGSGGGGSGGGGSGGGGSGGGGSGGGGSQVQLKQSGAELVKPGASVKLSCKASGYTFTNYWMHWVKLRPGQGFEWIGDINPSNGGTSYNEKFKRKATLTVDKSSSTAYMQLSSLTSEDSAVYYCTIHYYDNSYAMDYWGQGTSVTVSSASTKGPSVFPLAPCSRSTSESTAALGCLVKDYFPEPVTVSWNSGALTSGVHTFPAVLQSSGLYSLSSVVTVPSSNFGTQTYTCNVDHKPSNTKVDKTVERKCCVECPPCPAPPVAGPSVFLFPPKPKDTLMISRTPEVTCVVVDVSHEDPEVQFNWYVDGVEVHNAKTKPREEQFNSTFRVVSVLTVVHQDWLNGKEYKCKVSNKGLPAPIEKTISKTKGQPREPQVYTLPPSREKMTKNQVSLTCLVKGFYPSDIAVEWESNGQPENNYKTTPPMLKSDGSFFLYSKLTVDKSRWQQGNVFSCSVMHEALHNHYTQKSLSLSPGK
chain 2: DIVMTQSPDSLAVSLGERATISCRASESVDNYGISFMKWFQQKPGQPPKLLIYAASNQGSGVPDRFSGSGSGTDFTLTISSLQAEDVAVYYCQQSKEVPWTFGGGTKVEIKRTVAAPSVFIFPPSDEQLKSGTASVVCLLNNFYPREAKVQWKVDNALQSGNSQESVTEQDSKDSTYSLSSTLTLSKADYEKHKVYACEVTHQGLSSPVTKSFNRGECGGGGSGGGGSGGGGSGGGGSGGGGSGGGGSQVQLVQSGAEVKKPGASVKISCKASGYSFTAYYIHWVKQAPGQGLEWIGYISSYNGATNYNQKFKGRVTFTTDTSTSTAYMELRSLRSDDTAVYYCARDYDYDVGMDYWGQGTLVTVSSASTKGPSVFPLAPCSRSTSESTAALGCLVKDYFPEPVTVSWNSGALTSGVHTFPAVLQSSGLYSLSSVVTVPSSNFGTQTYTCNVDHKPSNTKVDKTVERKCCVECPPCPAPPVAGPSVFLFPPKPKDTLMISRTPEVTCVVVDVSHEDPEVQFNWYVDGVEVHNAKTKPREEQFNSTFRVVSVLTVVHQDWLNGKEYKCKVSNKGLPAPIEKTISKTKGQPREPQVYTLPPSREEMTKNQVSLTCLVEGFYPSDIAVEWESNGQPENNYKTTPPMLDSDGSFFLYSELTVDKSRWQQGNVFSCSVMHEALHNHYTQKSLSLSPGK
notes: Heterodimer of two single-gene chains, anti-VEGF arm (13A) and anti-DLL4 arm (13B), IgG2; also called 219R0202_21M18 SGBSP; 219R0202-21M18 SGBSP
[2]
  EC50: 10.2 nM
[3]
  fold loss in DLL4 binding activity compared to 21M18: ~5 fold
Human VEGF [4]
  Kd: 6.9 nM
Human VEGF [5]
  fold weaker binding affinity than 219R0202: ~5 fold

B4: 219R0202-21M18 monovalent bispecific antibody (MBSP) with common 21M18 light chain (bispecific antibody, human IgG2, kappa)
heavy 1: QVQLKQSGAELVKPGASVKLSCKASGYTFTNYWMHWVKLRPGQGFEWIGDINPSNGGTSYNEKFKRKATLTVDKSSSTAYMQLSSLTSEDSAVYYCTIHYYDNSYAMDYWGQGTSVTVSSASTKGPSVFPLAPCSRSTSESTAALGCLVKDYFPEPVTVSWNSGALTSGVHTFPAVLQSSGLYSLSSVVTVPSSNFGTQTYTCNVDHKPSNTKVDKTVERKCCVECPPCPAPPVAGPSVFLFPPKPKDTLMISRTPEVTCVVVDVSHEDPEVQFNWYVDGVEVHNAKTKPREEQFNSTFRVVSVLTVVHQDWLNGKEYKCKVSNKGLPAPIEKTISKTKGQPREPQVYTLPPSREKMTKNQVSLTCLVKGFYPSDIAVEWESNGQPENNYKTTPPMLKSDGSFFLYSKLTVDKSRWQQGNVFSCSVMHEALHNHYTQKSLSLSPGK
heavy 2: QVQLVQSGAEVKKPGASVKISCKASGYSFTAYYIHWVKQAPGQGLEWIGYISSYNGATNYNQKFKGRVTFTTDTSTSTAYMELRSLRSDDTAVYYCARDYDYDVGMDYWGQGTLVTVSSASTKGPSVFPLAPCSRSTSESTAALGCLVKDYFPEPVTVSWNSGALTSGVHTFPAVLQSSGLYSLSSVVTVPSSNFGTQTYTCNVDHKPSNTKVDKTVERKCCVECPPCPAPPVAGPSVFLFPPKPKDTLMISRTPEVTCVVVDVSHEDPEVQFNWYVDGVEVHNAKTKPREEQFNSTFRVVSVLTVVHQDWLNGKEYKCKVSNKGLPAPIEKTISKTKGQPREPQVYTLPPSREEMTKNQVSLTCLVEGFYPSDIAVEWESNGQPENNYKTTPPMLDSDGSFFLYSELTVDKSRWQQGNVFSCSVMHEALHNHYTQKSLSLSPGK
light: DIVMTQSPDSLAVSLGERATISCRASESVDNYGISFMKWFQQKPGQPPKLLIYAASNQGSGVPDRFSGSGSGTDFTLTISSLQAEDVAVYYCQQSKEVPWTFGGGTKVEIKRTVAAPSVFIFPPSDEQLKSGTASVVCLLNNFYPREAKVQWKVDNALQSGNSQESVTEQDSKDSTYSLSSTLTLSKADYEKHKVYACEVTHQGLSSPVTKSFNRGEC
notes: also called 219R0202_21M18 MBSP
[2]
  EC50: 6.2 nM
[3]
  fold loss in DLL4 binding activity compared to 21M18: ~3 fold
Human VEGF [4]
  Kd: 21 nM
Human VEGF [5]
  fold weaker binding affinity than 219R0202: ~14 fold

B5: Homo 13B (21M18) (antibody, human IgG2, kappa, V domains shown)
VH: QVQLVQSGAEVKKPGASVKISCKASGYSFTAYYIHWVKQAPGQGLEWIGYISSYNGATNYNQKFKGRVTFTTDTSTSTAYMELRSLRSDDTAVYYCARDYDYDVGMDYWGQGTLVTVSS
VL: DIVMTQSPDSLAVSLGERATISCRASESVDNYGISFMKWFQQKPGQPPKLLIYAASNQGSGVPDRFSGSGSGTDFTLTISSLQAEDVAVYYCQQSKEVPWTFGGGTKVEIKR
notes: also called 21M18 HC (with 13B mutation) expressed only with 21M18 LC
[2]
  EC50: 7.7 nM

B6: FLAG tagged minibody variant Var1 (13B) (other)
chain: DYKDDDDKCVECPPCPAPPVAGPSVFLFPPKPKDTLMISRTPEVTCVVVDVSHEDPEVQFNWYVDGVEVHNAKTKPREEQFNSTFRVVSVLTVVHQDWLNGKEYKCKVSNKGLPAPIEKTISKTKGQPREPQVYTLPPSREEMTKNQVSLTCLVEGFYPSDIAVEWESNGQPENNYKTTPPMLDSDGSFFLYSELTVDKSRWQQGNVFSCSVMHEALHNHYTQKSLSLSPGK
[1]
  binding result: binds

B7: 219R0302 IgG (anti-VEGF antibody reformatted to IgG2) (antibody, V domains shown)
VH: QVQLKQSGAELVKPGASVKLSCKASGYTFTNYWMHWVKLRPGQGFEWIGDINPSNGGTSYNEKFKRKATLTVDKSSSTAYMQLSSLTSEDSAVYYCTIHYYDNSYAMDYWGQGTSVTVSS
VL: DIQMTQSPSSLSASVGDRVTITCQASQDISNYVNWYQQKPGKAPKLLIYDASNLQTGVPSRFSGRGSGTHFTFTISSLQPEDLATYYCQQYDDLPPTFGRGTKLEIKR
notes: Mouse VH from immunised mice paired with a human kappa light chain from a phagemid library; also called 21R0302
Human VEGF [6]
  Kd: 2.1 nM
Mouse VEGF
  Kd: 21 nM
Human VEGF [4]
  Kd: 2.1 nM

B8: 219R0202 IgG (anti-VEGF antibody reformatted to IgG2) (antibody, V domains shown)
VH: QVQLKQSGAELVKPGASVKLSCKASGYTFTNYWMHWVKLRPGQGFEWIGDINPSNGGTSYNEKFKRKATLTVDKSSSTAYMQLSSLTSEDSAVYYCTIHYYDNSYAMDYWGQGTSVTVSS
VL: DIQLTQSPSSLSASVGDRVTITCRASQGINNHLAWYQQKPGKVPKSLIYAASNLHSGVPSKFSGSGSGTHFTLIISSLQPEDIATYYCQQYDNLPLTFGGGTKVEIKR
notes: Light chain variant of 219R0302 with the same heavy chain
Human VEGF [6]
  Kd: 1.5 nM
Mouse VEGF
  Kd: 23 nM
Human VEGF [4]
  Kd: 1.5 nM
